The results in this text go back to patent US20250188133A1, “CHIMERIC BACTERIOCINS AND METHOD FOR THE CONTROL OF PSEUDOMONAS” (priority 2022, published 2025).

Common to all, as to assay type: cell-based
The test system of one assay is P. aeruginosa strains. Description: agar disc-diffusion assay, panel of 25 strains. The settings on record: panel of 25 P. aeruginosa strains, in words. As to the method: (§1) Overnight P. aeruginosa cultures grown in CAA medium were equalized till OD595=1.0 in CAA and diluted 100×. Sterile cotton swab was briefly submerged in diluted microbial suspension, removing the excess of liquid by pressing it against the container wall. The swab was used for evenly streaking bacteria on plates containing growth medium with CAA solid agar (1.5%). 6 mm diameter sterile Whatman discs were placed on soft-agar and 0.3-30 μg of chimeric pyocins were spotted to paper disks. The plates were incubated overnight at 37° C. and bacteriocin inhibition zones were observed.
(§2) Next, all 25 P. aeruginosa strains were subjected to agar disc-diffusion assay by spotting different amounts of purified pyocin S5 (0.3 μg, 3 μg and 30 μg) on bacteria lawns. Six P. aeruginosa strains were resistant to pyocin S5. Four of these six strains were pyocin S5 and immunity protein-encoding strains—PA14, PAO1, […] and NCTC 13921. Two cystic fibrosis isolates, 12-35708 and 12-29165 were also completely resistant to pyocin S5, despite the absence of S5, or S5 immunity protein coding genes. […] Turbid inhibition zones were detected when 3 μg and 30 μg of S5 were spotted on the lawn of these strains (Table 1, FIG. 3).

In a further assay the test system is P. aeruginosa EY76. In words: agar disc-diffusion assay. The settings on record: strain EY76; 0.3, 3 and 30 μg of protein spotted on discs on CAA agar lawn, overnight. As to the method: as §1, §2
In a further assay the test system is P. aeruginosa HP40. Description: agar disc-diffusion assay. The settings on record: strain HP40; 0.3, 3 and 30 μg of protein spotted on discs on CAA agar lawn, overnight. As to the method:
as §1, §2
(Agar diffusion results depend on both activity and mobility in agar.)

For a further assay, the system named is P. aeruginosa HP41. Description: agar disc-diffusion assay. The settings on record: strain HP41; 0.3, 3 and 30 μg of protein spotted on discs on CAA agar lawn, overnight. The method, then:
as §1, §2

The subject of the next assay is P. aeruginosa BL77. In words: agar disc-diffusion assay. The settings on record: strain BL77; 0.3, 3 and 30 μg of protein spotted on discs on CAA agar lawn, overnight. As to the method: as §1, §2
The test system of a further assay is P. aeruginosa NCTC 13921. Description: agar disc-diffusion assay. The settings on record: strain NCTC 13921; 0.3, 3 and 30 μg of protein spotted on discs on CAA agar lawn, overnight. The method, then: as §1, §2
The next assay has as its system P. aeruginosa HP1. In words: agar disc-diffusion assay. The settings on record: strain HP1; 0.3, 3 and 30 μg of protein spotted on discs on CAA agar lawn, overnight. As to the method:
as §1, §2

For another assay, the system named is P. aeruginosa NCTC 13437. In words: agar disc-diffusion assay. The settings on record: strain NCTC 13437; 0.3, 3 and 30 μg of protein spotted on discs on CAA agar lawn, overnight. As to the method:
as §1, §2

The subject of the next assay is P. aeruginosa Bu002. Description: agar disc-diffusion assay. Conditions: strain Bu002; 0.3, 3 and 30 μg of protein spotted on discs on CAA agar lawn, overnight. As to the method: as §1, §2
Another assay deals with P. aeruginosa Pr335. Description: agar disc-diffusion assay. Conditions: strain Pr335; 0.3, 3 and 30 μg of protein spotted on discs on CAA agar lawn, overnight. The method, then:
as §1, §2

The test system of another assay is P. aeruginosa A19. Description: agar disc-diffusion assay. Conditions: strain A19; 0.3, 3 and 30 μg of protein spotted on discs on CAA agar lawn, overnight. As to the method: as §1, §2
A further assay deals with P. aeruginosa HP7. Description: agar disc-diffusion assay. The settings on record: strain HP7; 0.3, 3 and 30 μg of protein spotted on discs on CAA agar lawn, overnight. As to the method: as §1, §2
The test system of another assay is P. aeruginosa BI80. In words: agar disc-diffusion assay. Conditions: strain BI80; 0.3, 3 and 30 μg of protein spotted on discs on CAA agar lawn, overnight. As to the method: as §1, §2
For a further assay, the system named is P. aeruginosa HP75. Description: agar disc-diffusion assay. Conditions: strain HP75; 0.3, 3 and 30 μg of protein spotted on discs on CAA agar lawn, overnight. As to the method:
as §1, §2

In assay [1] the test system is P. aeruginosa Boston 41501 (ATCC 27853). Description: agar disc-diffusion assay. Conditions: strain Boston; 0.3, 3 and 30 μg of protein spotted on discs on CAA agar lawn, overnight. The method, then: as §1, §2
In another assay the test system is P. aeruginosa 13-18499. Description: agar disc-diffusion assay. The settings on record: strain 13-18499; 0.3, 3 and 30 μg of protein spotted on discs on CAA agar lawn, overnight. As to the method:
as §1, §2

The subject of another assay is P. aeruginosa HP52. In words: agar disc-diffusion assay. The settings on record: strain HP52; 0.3, 3 and 30 μg of protein spotted on discs on CAA agar lawn, overnight. The method, then: as §1, §2
The subject of a further assay is P. aeruginosa HP6. In words: agar disc-diffusion assay. The settings on record: strain HP6; 0.3, 3 and 30 μg of protein spotted on discs on CAA agar lawn, overnight. The method, then: as §1, §2
The subject of a further assay is P. aeruginosa ATCC 29260. Description: agar disc-diffusion assay. Conditions: strain ATCC 29260; 0.3, 3 and 30 μg of protein spotted on discs on CAA agar lawn, overnight. As to the method:
as §1, §2

The next assay has as its system P. aeruginosa PAO1. Description: agar disc-diffusion assay. Conditions: strain PAO1; 0.3, 3 and 30 μg of protein spotted on discs on CAA agar lawn, overnight. As to the method:
as §1, §2

For another assay, the system named is P. aeruginosa BR79. Description: agar disc-diffusion assay. The settings on record: strain BR79; 0.3, 3 and 30 μg of protein spotted on discs on CAA agar lawn, overnight. As to the method: as §1, §2
Another assay concerns P. aeruginosa PA14. Description: agar disc-diffusion assay. The settings on record: strain PA14; 0.3, 3 and 30 μg of protein spotted on discs on CAA agar lawn, overnight. The method, then: as §1, §2
The test system of the next assay is P. aeruginosa UR78. In words: agar disc-diffusion assay. Conditions: strain UR78; 0.3, 3 and 30 μg of protein spotted on discs on CAA agar lawn, overnight. As to the method:
as §1, §2

B1: S5-Pflu373: chimeric bacteriocin SEQ ID NO: 13: pyocin S5 first segment fused to P. fluorescens Pflu373 killing domain (protein)
chain: MSNDNEVPGSMVIVAQGPDDQYAYEVPPIDSAAVAGNMFGDLIQREIYLQKNIYYPVRSIFEQGTKEKKEINKKVSDQVDGLLKQITQGKREATRQERVDVMSAVLHKMESDLEGYKKTFTKGPFIDYEKQSSLSIYEAWVKIWEKNSWEERKKYPFQQLVRDELERAVAYYKQDSLSEAVKVLRQELNKQKALKEKEDLSQLERDYRTRKANLEMKVQSELDQAGSALPPLVSPTPEQWLERATRLVTQAIADKKQLQTTNNTLIKNSPTPLEKQKAIYNGELLVDEIASLQARLVKLNAETTRRRTEAEEQAKAEEEIKGAIKFTADFYKEIGEKYGAQMTASATDLAETAKGKTLRSAEEALKAFDQYKDHLDKKFSAADRAAIVNALDSLDRAELAKNLNLFAKGFGYTSKAFDVYDLVEEVKKSYASGDWNNTALKVETLFAGSAATGLIAFAFGVTVSTPVGIVAFALIMALVSAYIDDAHVKQFNDALDAILP
modifications: S5-Pflu373
Consider B1, for which, in the assay on P. aeruginosa strains, the “activity spectrum / profile in agar disc diffusion assay” value is reported as “good activity profile, similar to S5-Pflu095”. For the same molecule, the “Activity in agar disc-diffusion assay” value with P. aeruginosa EY76 is given as “*** (activity detected with 0.3 μg of protein)”; in the assay on P. aeruginosa HP40 it was “*** (activity detected with 0.3 μg of protein)”; with P. aeruginosa HP41 it was “*** (activity detected with 0.3 μg of protein)”; in the assay with P. aeruginosa BL77 it was “** (activity detected with 3 μg of protein)”; in the assay with P. aeruginosa NCTC 13921 it was “** (activity detected with 3 μg of protein)”; in the assay on P. aeruginosa HP1, “*** (activity detected with 0.3 μg of protein)”. The “Activity in agar disc-diffusion assay” value was “* (activity detected only with 30 μg of protein)” in the assay on P. aeruginosa NCTC 13437; “*** (activity detected with 0.3 μg of protein)” with P. aeruginosa Bu002; “*** (activity detected with 0.3 μg of protein)” in the assay with P. aeruginosa Pr335; “*** (activity detected with 0.3 μg of protein)” with P. aeruginosa A19; “*** (activity detected with 0.3 μg of protein)” with P. aeruginosa HP7; “*** (activity detected with 0.3 μg of protein)” in the assay with P. aeruginosa BI80. Also, the “Activity in agar disc-diffusion assay” value is “** (activity detected with 3 μg of protein)” in the assay with P. aeruginosa HP75; “*** (activity detected with 0.3 μg of protein)” in [1]; “** (activity detected with 3 μg of protein)” in the assay on P. aeruginosa 13-18499; “** (activity detected with 3 μg of protein)” in the assay on P. aeruginosa HP52; “*** (activity detected with 0.3 μg of protein)” with P. aeruginosa HP6; “*** (activity detected with 0.3 μg of protein)” in the assay with P. aeruginosa ATCC 29260. Further, the “Activity in agar disc-diffusion assay” value was “*** (activity detected with 0.3 μg of protein)” in the assay with P. aeruginosa PAO1, “** (activity detected with 3 μg of protein)” in the assay on P. aeruginosa BR79, “** (activity detected with 3 μg of protein)” in the assay on P. aeruginosa PA14 and “*** (activity detected with 0.3 μg of protein)” in the assay on P. aeruginosa UR78.
